The target of the assay is human prion protein (hPrP), amino acid residues 23-230 (human) (UniProt P04156). The assay can be described thus: high-speed atomic force microscopy (HS-AFM).

Experimental findings from publication PMC8049198 are described below.

With “human prion protein (hPrP), amino acid residues 23-230, P04156 23-230 (domain or fragment; other documents disagree on this pair)”, the stoichiometry N was determined as 6.

As a reminder, the stoichiometry N is a count of units in the complex or per binding partner.
